Test results reported in patent US10428159B2, “Blocking monoclonal antibodies to AGR2 and its receptor C4.4A” (Board of Regents, The University of Texas System, priority 2014, dated 2019).

B1: rAGR2: human recombinant AGR2 protein (ab64013, AbCam) (protein)
chain: RDTTVKPGAKKDTKDSRPKLPQTLSRGWGDQLIWTQTYEEALYKSKTSNKPLMIIHHLDECPHSQALKKVFAENKEIQKLAEQFVLLNLVYETTDKHLSPDGQYVPRIMFVDPSLTVRADITGRYSNRLYAYEPADTALLLDNMKKALKLLKTEL
B2: 162-1A-1: mouse monoclonal blocking antibody against C4.4A, IgG2b/kappa, VH SEQ ID NO: 10, VL SEQ ID NO: 11 (antibody, V domains shown)
VH: MNFGLSLIFLVLILKGVQCEVMLVESGGGLVKPGGSLKLSCAASGFTFSSYTMSWVRQTPEKRLEWVASISSGGGNTYYADSVKGRFTMSRDNAKNNLYLQMSSLRSEDTALYYCARSYYYGISYDTYWGQGTLVTVSA
VL: MKLPVRLLVLMFWIPASNSDVVMTQTPLSLPVSLGDQASISCRSSQNLVHSDGNTYLHWYLQKPGQSPKLLIYKVSNRFSGVPDRFSGSGSGTDFTLKISRVEAEDLGVYFCSQSTHVPYTFGGGTKLEIK

What was measured:
[1] = tested on: AsPC-1 cells; experiment: Invasion assay with rAGR2; format: cell-based; details: AsPC-1, rAGR2 0-500 nM
Procedure: (§1) Cell growth, migration, invasion and apoptosis assays. Wild-type and siRNA transfected PDAC cells were grown with rAGR2 (0-500 nM) in the presence and absence of antibodies (polyclonal commercial or newly developed mAbs) (1 μM). The medium was refreshed daily. Cell numbers were estimated after 48 h by MTS assay as described previously (Ramachandran et al., 2007). In order to avoid the differences in basal values for each cell line, the data are presented as the percent of viable cells compared to the appropriate controls. Migration and invasion assays were conducted at 24 h as described previously (Ramachandran et al., 2007). Apoptosis assays were conducted 72 h after adding Gemcitabine (Gem) to Gem-sensitive BxPC-3 cells (1 μM) and Gem-resistant AsPC-1 cells (5 μM) (Arumugam et al., 2009) as described previously (Ramachandran et al., 2008). Because siRNA transfection itself induced basal apoptosis, cells transfected with siRNAs were treated with a lower concentration of Gem (BxPC3: 0.5 μM; AsPC-1: 1 μM).

[2] = tested on: BxPC-3 cells; experiment: Migration (Boyden's chamber) with rAGR2; format: cell-based; details: BxPC-3, rAGR2 0-100 nM, 22 h
Procedure: (§2) FIGS. 7A-D. Extracellular rAGR2-mediated functions. (A) Pancreatic cancer cells (BxPC-3 and MiaPaCa-2) were used for these studies. Extracellular addition of rAGR2 caused a significant dose-dependent increase in proliferation (BxPC-3-3-fold increase; MiaPaCa-2-4-fold increase; p<0.05). Pancreatic cancer cells were plated (2×10^4 cells) with and without rAGR2 (0-100 nM) on a Boyden's chamber for migration studies (B) and on an invasion chamber for invasion studies (C). After 22 h, cells were fixed with methanol and stained by hematoxylin, and cells in 10 random fields at 100× magnification were photographed and counted. Extracellular addition of rAGR2 caused a significant dose-dependent increase in migration (BxPC-3-7-fold increase; MiaPaCa-2-3-fold increase) and invasion (BxPC-3-10-fold increase; MiaPaCa-2-3-fold increase). (D) For analysis of apoptosis, BxPC-3 cells were treated with and without Gem (1 μM) and AGR2 (100 nM). […] Data shown are mean±SE for 3 experiments (*p<0.05 vs. control).
(§3) Cell growth, migration, invasion and apoptosis assays. Wild-type and siRNA transfected PDAC cells were grown with rAGR2 (0-500 nM) in the presence and absence of antibodies (polyclonal commercial or newly developed mAbs) (1 μM). The medium was refreshed daily. Cell numbers were estimated after 48 h by MTS assay as described previously (Ramachandran et al., 2007). […]

[3] = tested on: MiaPaCa-2 cells; experiment: Migration (Boyden's chamber) with rAGR2; format: cell-based; details: MiaPaCa-2, rAGR2 0-100 nM, 22 h
Procedure: as §2, §3

[4] = tested on: BxPC-3 cells; experiment: Apoptosis assay (Gem, rAGR2); format: cell-based; details: BxPC-3, Gem 1 μM, AGR2 100 nM
Procedure: as §2, §3

[5] = tested on: BxPC-3 cells; experiment: Invasion chamber assay with rAGR2; format: cell-based; details: BxPC-3, rAGR2 0-100 nM, 22 h
Procedure: as §2, §3

[6] = tested on: MiaPaCa-2 cells; experiment: Invasion chamber assay with rAGR2; format: cell-based; details: MiaPaCa-2, rAGR2 0-100 nM, 22 h
Procedure: as §2, §3

[7] = tested on: AsPC-1 cells; experiment: Cell proliferation (MTS assay) with rAGR2; format: cell-based; details: AsPC-1, rAGR2 0-500 nM, concentration-dependent
Procedure: as §1

[8] = tested on: AsPC-1 cells; experiment: Apoptosis assay (Gem, rAGR2, antibodies); format: cell-based
Procedure: FIGS. 11A-D. Monoclonal antibodies developed bind respectively to AGR2 and C4.4A proteins and blocked their functions. From the endogenous lysate (SU86.86/Panc-1), AGR2 (18 kD) and C4.4A (50 kD) were identified by a panel of mAbs. […] Extra bands identified with the endogenous protein were re-confirmed with the recombinant protein. For apoptosis studies, AsPC-1 cells were treated without or with Gem (0.5 μM) and rAGR2 (100 nM) and with purified (A) AGR2 and (B) C4.4A Abs (1 μM). Commercially available Abs served as control. […] Horizontal line represents median apoptotic value. Data shown are mean±SE for 3 experiments (*p<0.05). (C,D) Binding assays were conducted with purified (C) AGR2 and (D) C4.4A Abs as selected from the apoptosis assay as having high blocking efficiency. ELISA assays were conducted by coating antigenic peptide (0.5 μg) and probed with respective purified Abs. Data shown are mean±SE for 3 experiments (*p <0.05). Based on high specificity and binding, clone 28B for AGR2 and 1A for C4.4A were selected. Purified Abs were also run on 4-20% gradient gel to check for the presence of heavy (50 kD) and light chains (25 kD).
Cell growth, migration, invasion and apoptosis assays. Wild-type and siRNA transfected PDAC cells were grown with rAGR2 (0-500 nM) in the presence and absence of antibodies (polyclonal commercial or newly developed mAbs) (1 μM). The medium was refreshed daily. […]

[9] = tested on: AsPC-1 cells; experiment: Migration assay with rAGR2; format: cell-based; details: AsPC-1, rAGR2 0-500 nM
Procedure: as §1

[10] = tested on: BxPC-3 cells; experiment: Cell proliferation with rAGR2; format: cell-based; details: BxPC-3, rAGR2 dose-dependent
Procedure: as §2, §3

[11] = tested on: MiaPaCa-2 cells; experiment: Cell proliferation with rAGR2; format: cell-based; details: MiaPaCa-2, rAGR2 dose-dependent
Procedure: as §2, §3

[12] = tested on: Capan-2 cells; experiment: Model 2 Capan-2 stromal model, orthotopic tumors; format: in vivo, athymic nude mice
Procedure: (§4) In vivo studies. In vivo experiments were conducted with athymic nude mice (B6.Cg-Foxn1^nu/J—female—age 9 weeks) (NCI, Bethesda, Md.) according to the UT MDACC regulatory standards and IUCAC committee approval. Orthotopic tumors were developed with luciferase-labeled cells (0.25×10^6). IgG (Cat #OB010701; Southern Biotech, Birmingham, Ala.) served as a control Ab.

[13] = tested on: PDAC cell; experiment: Blocking of basal and AGR2-stimulated PDAC cell migration by antibodies; format: cell-based; details: antibodies 1 μM, compared to non-specific antibody
Procedure: as §1
Blocking monoclonal antibody development. Mouse monoclonal antibodies (mAbs) against AGR2 and C4.4A were developed in the Monoclonal Antibody Core of UT MDACC using unconjugated antigenic peptides. Several hybridoma colonies (2400 for each antibody) were screened for target recognition by ELISA using KLH-conjugated peptides. […]

[14] = tested on: Capan-2 cells; experiment: Model 3 Capan-2 regression studies, orthotopic tumors; format: in vivo, athymic nude mice; details: 15 mg/kg single mAb or 7.5 mg each in combination, twice a week i.p.
Procedure: Immunohistochemical (IHC) staining. […] Results were blindly evaluated by a pathologist and expression levels were categorized as positive or negative (cytoplasmic staining of >10% or <10% of the tumor cells, respectively) and staining intensity as strong, moderate, or no staining. Apoptotic cells were detected in paraffin sections by fluorescence-labeled TUNEL staining (Promega, Cat #G3250).
as §4
Tumor growth and metastasis were measured weekly with the IVIS® live animal bioluminescence imaging system after injecting luciferin substrate (Xenogen, Alameda, Calif.). The number of mice surviving was recorded each week and shown as the percent of the original group size.

Molecule	increased invasion [1] [fold]	increase in migration [2] [fold]	increase in migration [3] [fold]	reduction of Gem induced apoptosis [4] [%]	increase in invasion [5] [fold]	increase in invasion [6] [fold]	increased proliferation [7] [fold]	reduction of the effect of Gem (apoptosis) ([8]; AsPC-1, simultaneous rAGR2 with 5 μM Gem) [%]	increased migration [9] [fold]	increase in proliferation [10] [fold]	increase in proliferation [11] [fold]	Median survival ([12]; 15 mg/kg twice a week i.p.) [weeks]	mice surviving ([12]; at nine weeks (seven weeks of treatment), when all control Ab mice had died, 15 mg/kg twice a week i.p.) [%]	mice with complete tumor regression ([12]; bioluminescence imaging, confirmed by surgical examination)	reduction of tumor volume ([12]; compared to control Ab, bioluminescence) [%]	mice surviving after week 63 ([12]; treatment stopped after 15 weeks, no evidence of tumor)	AGR2-mediated survival effects (Gem-induced apoptosis) ([8]; AsPC-1, Gem, rAGR2 100 nM, Abs 1 μM)	basal and AGR2-mediated stimulation in migration [13]	Median survival times [14] [weeks]
B1	3	7	3	50	10	3	3	> 50	10	3	4								
B2												10	57	3/7	50	one	abolished	abolished	12
